Results published in the supplement of paper PMC11246515.
± gives the standard deviation of the averaged measurements.

Experiment: total protein half-life in vivo (active degradation + dilution); higher = more stable protein
[1] = E. coli NCM3722 delta-clpP delta-lon delta-hslV, growth: N-lim chemostat, doubling time 6 h
[2] = E. coli NCM3722 delta-clpP, growth: N-lim chemostat, doubling time 6 h
[3] = E. coli NCM3722 delta-hslV, growth: N-lim chemostat, doubling time 6 h
[4] = E. coli NCM3722 delta-lon, growth: N-lim chemostat, doubling time 6 h
[5] = E. coli NCM3722 delta-smpB, growth: N-lim chemostat, doubling time 6 h
[6] = wild type E. coli NCM3722, growth: C-lim chemostat, doubling time 3 h
[7] = wild type E. coli NCM3722, growth: C-lim chemostat, doubling time 6 h
[8] = wild type E. coli NCM3722, growth: C-lim chemostat, doubling time 12 h
[9] = wild type E. coli NCM3722, growth: N-lim chemostat, doubling time 6 h
[10] = wild type E. coli NCM3722, growth: N-lim chemostat, doubling time 12 h
[11] = wild type E. coli NCM3722, growth: P-lim chemostat, doubling time 6 h
[12] = wild type E. coli NCM3722, growth: P-lim chemostat, doubling time 12 h

## MAEKRNIFLVGPMGAGKSTIGRQLAQQLNMEFYDSDQEIEKRTGADVGWVFDLEGEEGFRDREEKVINELTEKQGIVLATGGGSVKSRETRNRLSARGVVVYLETTIEKQLARTQRDKKRPLLHVETPPREVLEALANERNPLYEEIADVTIRTDDQSAKVVANQIIHMLESN [P0A6D7]
[1]
  total protein half-life in vivo: 4.84 ± 0.069 h
[2]
  total protein half-life in vivo: 3.45 ± 0.24 h
[3]
  total protein half-life in vivo: 2.76 ± 0.24 h
[4]
  total protein half-life in vivo: 4.2 ± 0.64 h
[5]
  total protein half-life in vivo: 2.69 ± 0.079 h
[6]
  total protein half-life in vivo: 2.24 ± 0.27 h
[7]
  total protein half-life in vivo: 3.989 ± 0.026 h
[8]
  total protein half-life in vivo: 5.31 ± 0.22 h
[9]
  total protein half-life in vivo: 2.26 ± 0.05 h
[10]
  total protein half-life in vivo: 3.61 ± 0.34 h
[11]
  total protein half-life in vivo: 2.62 ± 0.12 h
[12]
  total protein half-life in vivo: 4.5 ± 0.26 h

## MAEFPASLLILNGKSTDNLPLREAIMLLREEGMTIHVRVTWEKGDAARYVEEARKFGVATVIAGGGDGTINEVSTALIQCEGDDIPALGILPLGTANDFATSVGIPEALDKALKLAIAGDAIAIDMAQVNKQTCFINMATGGFGTRITTETPEKLKAALGSVSYIIHGLMRMDTLQPDRCEIRGENFHWQGDALVIGIGNGRQAGGGQQLCPNALINDGLLQLRIFTGDEILPALVSTLKSDEDNPNIIEGASSWFDIQAPHDITFNLDGEPLSGQNFHIEILPAALRCRLPPDCPLLR
[1]
  total protein half-life in vivo: 5 ± 0.044 h
[2]
  total protein half-life in vivo: 4.23 ± 0.21 h
[3]
  total protein half-life in vivo: 3.94 ± 0.33 h
[4]
  total protein half-life in vivo: 4.69 ± 0.069 h
[5]
  total protein half-life in vivo: 4.31 ± 0.74 h
[6]
  total protein half-life in vivo: 3.19 ± 0.41 h
[7]
  total protein half-life in vivo: 5.73 ± 0.4 h
[8]
  total protein half-life in vivo: 9.08 ± 0.56 h
[9]
  total protein half-life in vivo: 4.51 ± 0.3 h
[10]
  total protein half-life in vivo: 7.91 ± 0.14 h
[11]
  total protein half-life in vivo: 5.17 ± 0.48 h
[12]
  total protein half-life in vivo: 9.75 ± 0.16 h

## MNKILLQCDNLCKRYQEGSVQTDVLHNVSFSVGEGEMMAIVGSSGSGKSTLLHLLGGLDTPTSGDVIFNGQPMSKLSSAAKAELRNQKLGFIYQFHHLLPDFTALENVAMPLLIGKKKPAEINSRALEMLKAVGLDHRANHRPSELSGGERQRVAIARALVNNPRLVLADEPTGNLDARNADSIFQLLGELNRLQGTAFLVVTHDLQLAKRMSRQLEMRDGRLTAELSLMGAE
[1]
  total protein half-life in vivo: 6.92 h
[2]
  total protein half-life in vivo: 6.37 ± 0.67 h
[4]
  total protein half-life in vivo: 6.32 ± 0.21 h
[6]
  total protein half-life in vivo: 3.22 h
[7]
  total protein half-life in vivo: 6.42 ± 0.012 h
[8]
  total protein half-life in vivo: 10.8 ± 0.94 h
[9]
  total protein half-life in vivo: 5.78 ± 0.77 h
[10]
  total protein half-life in vivo: 13.1 ± 1.3 h
[11]
  total protein half-life in vivo: 5.48 ± 0.27 h

## MDSHTLIQALIYLGSAALIVPIAVRLGLGSVLGYLIAGCIIGPWGLRLVTDAESILHFAEIGVVLMLFIIGLELDPQRLWKLRAAVFGCGALQMVICGGLLGLFCMLLGLRWQVAELIGMTLALSSTAIAMQAMNERNLMVTQMGRSAFAVLLFQDIAAIPLVAMIPLLATSSASTTMGAFALSALKVAGALVLVVLLGRYVTRPALRFVARSGLREVFSAVALFLVFGFGLLLEEVGLSMAMGAFLAGVLLASSEYRHALESDIEPFKGLLLGLFFIGVGMSIDFGTLLENPLRIVILLLGFLIIKIAMLWLIARPLQVPNKQRRWFAVLLGQGSEFAFVVFGAAQMANVLEPEWAKSLTLAVALSMAATPILLVILNRLEQSSTEEAREADEIDEEQPRVIIAGFGRFGQITGRLLLSSGVKMVVLDHDPDHIETLRKFGMKVFYGDATRMDLLESAGAAKAEVLINAIDDPQTNLQLTEMVKEHFPHLQIIARARDVDHYIRLRQAGVEKPERETFEGALKTGRLALESLGLGPYEARERADVFRRFNIQMVEEMAMVENDTKARAAVYKRTSAMLSEIITEDREHLSLIQRHGWQGTEEGKHTGNMADEPETKPSS
[2]
  total protein half-life in vivo: 7.26 ± 1 h
[3]
  total protein half-life in vivo: 6.68 ± 1.4 h
[4]
  total protein half-life in vivo: 6.07 ± 0.42 h
[5]
  total protein half-life in vivo: 6.12 ± 0.22 h
[6]
  total protein half-life in vivo: 3.62 ± 0.14 h
[7]
  total protein half-life in vivo: 6.07 ± 0.45 h
[8]
  total protein half-life in vivo: 13.1 ± 0.2 h
[9]
  total protein half-life in vivo: 6.452 ± 0.033 h
[10]
  total protein half-life in vivo: 11.9 ± 1.1 h
[11]
  total protein half-life in vivo: 6.64 ± 0.37 h
[12]
  total protein half-life in vivo: 12.2 ± 1.2 h

## MYTKIIGTGSYLPEQVRTNADLEKMVDTSDEWIVTRTGIRERHIAAPNETVSTMGFEAATRAIEMAGIEKDQIGLIVVATTSATHAFPSAACQIQSMLGIKGCPAFDVAAACAGFTYALSVADQYVKSGAVKYALVVGSDVLARTCDPTDRGTIIIFGDGAGAAVLAASEEPGIISTHLHADGSYGELLTLPNADRVNPENSIHLTMAGNEVFKVAVTELAHIVDETLAANNLDRSQLDWLVPHQANLRIISATAKKLGMSMDNVVVTLDRHGNTSAASVPCALDEAVRDGRIKPGQLVLLEAFGGGFTWGSALVRF [P0A6R0]
[1]
  total protein half-life in vivo: 5.01 ± 0.12 h
[2]
  total protein half-life in vivo: 4.93 ± 0.2 h
[3]
  total protein half-life in vivo: 4.91 ± 0.11 h
[4]
  total protein half-life in vivo: 5.578 ± 0.021 h
[5]
  total protein half-life in vivo: 4.564 ± 0.018 h
[6]
  total protein half-life in vivo: 2.89 ± 0.036 h
[7]
  total protein half-life in vivo: 5.36 ± 0.51 h
[8]
  total protein half-life in vivo: 9.94 ± 0.71 h
[9]
  total protein half-life in vivo: 4.91 ± 0.27 h
[10]
  total protein half-life in vivo: 9.3 ± 1 h
[11]
  total protein half-life in vivo: 5.907 ± 0.0094 h
[12]
  total protein half-life in vivo: 12.9 ± 1.5 h

## MQSDKVLNLPAGYFGIVLGTIGMGFAWRYASQVWQVSHWLGDGLVILAMIIWGLLTSAFIARLIRFPHSVLAEVRHPVLSSFVSLFPATTMLVAIGFVPWFRPLAVCLFSFGVVVQLAYAAWQTAGLWRGSHPEEATTPGLYLPTVANNFISAMACGALGYTDAGLVFLGAGVFSWLSLEPVILQRLRSSGELPTALRTSLGIQLAPALVACSAWLSVNGGEGDTLAKMLFGYGLLQLLFMLRLMPWYLSQPFNASFWSFSFGVSALATTGLHLGSGSDNGFFHTLAVPLFIFTNFIIAILLIRTFALLMQGKLLVRTERAVLMKAEDKE
[5]
  total protein half-life in vivo: 6.2 h
[7]
  total protein half-life in vivo: > 8 h
[11]
  total protein half-life in vivo: 6.53 h
